Patent US20200332015A1 (NAMAB THERAPEUTICS, published 2020)
Read-outs that look alike come from different tables or passages of the source.

T1: mouse Fc-tagged mouse CD137 (R&D Systems, cat. 937-4B-050) (mouse, UniProt P20334 24-187)
T1 construct: also called mouse CD137-Fc chimeric protein
T1 sequence (looked up): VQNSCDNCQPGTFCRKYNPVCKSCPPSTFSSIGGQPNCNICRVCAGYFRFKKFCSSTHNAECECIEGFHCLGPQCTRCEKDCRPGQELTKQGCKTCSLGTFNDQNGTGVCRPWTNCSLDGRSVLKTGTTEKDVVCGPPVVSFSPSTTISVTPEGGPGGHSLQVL


Tests used:
[1] = target: T2, human CD137 expressed on Jurkat cells (human, UniProt Q07011 24-255); experiment: cell-based or functional assay
[2] = target: human PDL1-Fc chimeric protein (human, UniProt Q9NZQ7 19-238, limits assumed); experiment: SPR T200, antigen-Fc captured, molecule as analyte
How it was run: (§1)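 Apparent KD, ka and kd come from a one-to-one Langmuir model. Species Fc proteins were captured on an immobilized anti-Fc surface, and analyte at 0.12-90 nM (three-fold series) was flowed 3 min with 10-min dissociation; surfaces were stripped with 3 M MgCl₂.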

[3] = target: T3, cynomolgus monkey Fc-tagged CD137 (R&D Systems, cat. 9324-4B-100) (cynomolgus monkey, UniProt A9YYE7 24-186); experiment: SPR T200, antigen-Fc captured, molecule as analyte
T3 construct: also called cynomolgus CD137-Fc chimeric protein
T3 sequence (A9YYE7 entry or part of it): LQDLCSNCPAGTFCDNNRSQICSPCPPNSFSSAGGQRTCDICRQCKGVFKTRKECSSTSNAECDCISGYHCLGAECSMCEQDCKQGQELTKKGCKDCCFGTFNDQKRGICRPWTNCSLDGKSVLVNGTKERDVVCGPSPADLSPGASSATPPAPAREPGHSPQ
How it was run: as §1

[4] = target: T1, mouse Fc-tagged mouse CD137 (R&D …); experiment: SPR T200, antigen-Fc captured, molecule as analyte
How it was run: as §1

[5] = target: T4, Fc tagged human CD137 (R&D Systems, cat. 838-4B-100) (human, UniProt Q07011 24-186); experiment: SPR T200, antigen-Fc captured, molecule as analyte
T4 construct: also called CD137 Fc chimera; human CD137-Fc chimeric protein
How it was run: as §1

[6] = target: T4, Fc tagged human CD137 (R&D Systems, …); experiment: SPR T200, antigen-Fc captured, molecule as analyte; remark: listed apart in the source
[7] = target: T2, human CD137 expressed on Jurkat cells; experiment: cell-based or functional assay; remark: listed apart in the source
[8] = target: T2, human CD137 expressed on Jurkat cells; experiment: cell-based or functional assay; remark: listed apart in the source
[9] = target: T2, human CD137 expressed on Jurkat cells; experiment: cell-based or functional assay; remark: listed apart in the source
[10] = target: cynomolgus PDL1-Fc chimeric protein (cynomolgus, UniProt G7PSE7 19-238); experiment: SPR T200, antigen-Fc captured, molecule as analyte
Chain of cynomolgus PDL1-Fc chimeric protein (G7PSE7 entry or part of it mutant): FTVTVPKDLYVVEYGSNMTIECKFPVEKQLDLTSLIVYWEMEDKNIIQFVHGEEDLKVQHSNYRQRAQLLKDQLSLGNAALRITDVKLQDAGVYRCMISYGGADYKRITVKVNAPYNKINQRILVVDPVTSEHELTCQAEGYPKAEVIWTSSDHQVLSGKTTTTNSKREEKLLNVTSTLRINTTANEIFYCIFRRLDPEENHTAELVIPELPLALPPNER
How it was run: as §1

[11] = target: human PDL1 on cells (antigen-presenting cells and T cells of SEA stimulated human PBMC) (human, UniProt Q9NZQ7 19-290); experiment: cell-based or functional assay
[12] = target: T2, human CD137 expressed on Jurkat cells; experiment: cell-based or functional assay; remark: listed apart in the source

| Kd [2] [nM] | koff [2] [s⁻¹] | kon [2] [M⁻¹ s⁻¹] | Kd [3] [nM] | koff [3] [s⁻¹] | kon [3] [M⁻¹ s⁻¹] | Kd [5] [nM] | koff [5] [s⁻¹] | kon [5] [M⁻¹ s⁻¹] | max. activation, NF-kB reporter gene, CHO-PD-L1 [9] [%] | rel. IC50 (urelumab/test), NF-kB reporter gene, CHO-PD-L1 [9] [ratio] | Binder | other results |
| --- | --- | --- | --- | --- | --- | --- | --- | --- | --- | --- | --- | --- |
| 0.067 | 0.0002 | 3.1e+06 | 0.59 | 0.00033 | 560000 | ≤ 0.015 | < 1e-05 | 680000 | 229 | 23.5 | PRO1124 (38-02-A04 sc06 Full scDb-i/33_03_G02 scDb-o) (bispecific antibody, scDb; also called PR01124) DIQMTQSPSSLSASVGDRVTITCQASQSINDYLAWYQQKPGKAPKLLIYKASTLASGVPSRFSGSGSGTDFTLTISSLQPEDFATYYCQQGYIITDIDNVFGTGTKVTVLGGGGGSQVQLQESGPGLVKPSETLSLTCKASGFSFSNSYWICWVRQPPGKGLEWIGCTFVGSSDSTYYANWAKGRVTISKDSSKNQVSLKLSSVTAADTAVYFCARHPSDAVYGYANNLWGQGTLVTVSSGGGGSGGGGSGGGGSGGGGSLQMTQSPSSLSASVGDRVTITCQASQSINNVLAWYQQKPGKPPKLLIYRASTLASGVPSRFSGSGSGTDFTLTISSLQPEDFATYYCQSSYGNYGDFGTGTKVTVLGGGGGSQVQLQESGPGLVKPSETLSLTCKVSGFSFSSGYDMCWIRQPPGKGLEWIGCVVAGSVDITYYASWAKGRVTISVDSSKNQFSLKLSSVTAADTAVYYCARKDAYSDAFNLWGQGTLVTVSS | EC50 NFkB-luciferase, HCC827 with IFNy [1]: 4.83 ng/mL; Top of curve fit, NFkB-luciferase, HCC827 with IFNy [1]: 188; Kd [4]: 11 nM; koff [4]: 0.0022 s⁻¹; kon [4]: 200000 M⁻¹ s⁻¹; fold improvement of affinity against PRO885 [6]: > 200 fold; EC50 NFkB-luciferase, HCC827 without IFNy [7]: 5.62 ng/mL; Top of curve fit, NFkB-luciferase, HCC827 without IFNy [7]: 113; EC50 NFkB-luciferase, CHO-PDL1 cells [8]: 3.68 ng/mL; Top of curve fit, NFkB-luciferase, CHO-PDL1 cells [8]: 229; max. activation, HCC827 +IFNg [9]: 188%; max. activation, HCC827 -IFNg [9]: 113%; rel. IC50 (urelumab/test), HCC827 +IFNg [9]: 22.4 ratio; rel. IC50 (urelumab/test), HCC827 -IFNg [9]: 19.9 ratio |
| ≤ 0.0017 | < 1e-05 | 5.9e+06 |  |  |  |  |  |  |  |  | PRO997 (37-20-B03 CDR, scFv) (scFv, also called anti-PDL1 scFv PRO997) scFv: DIQMTQSPSSLSASVGDRVTITCQASQSIGTYLAWYQQKPGKAPKLLIYRAFILASGVPSRFSGSGSGTDFTLTISSLQPEDFATYYCQSNFYSDSTTIGPNAFGTGTKVTVLGGGGGSGGGGSGGGGSGGGGSQVQLQESGPGLVKPSETLSLTCKVSGFSFNSDYWIYWIRQPPGKGLEWIGSIYGGSSGNTQYASWAQGRVTISVDSSKNQFSLKLSSVTAADTAVYYCARGYVDYGGATDLWGQGTLVTVSS | Kd [10]: < 0.00167 nM; koff [10]: < 1e-05 s⁻¹; kon [10]: 6e+06 M⁻¹ s⁻¹; EC50 of IL-2 secretion, SEA stimulated PBMC, 96 h [11]: 40.9 ng/mL |
| 0.07 | 0.00015 | 2.2e+06 | 6.9 | 0.01 | 1.5e+06 | 4.2 | 0.0063 | 1.5e+06 | 432 | 2.35 | PRO951 (38-27-C05 sc02 scDb-i/33-03-G02 sc01 scDb-o) (bispecific antibody, scDb, PDL1 x CD137) DIQMTQSPSSLSASVGDRVTITCQASQSINDYLAWYQQKPGKAPKLLIYKASTLASGVPSRFSGSGSGTDFTLTISSLQPEDFATYYCQQGYIITDIDNVFGTGTKVTVLGGGGGSEVQLVESGGGLVQPGGSLRLSCAASGFSFNNDYDMCWVRQAPGKGLEWIGCIDTGDGSTYYASWAKGRFTISRDNSKNTVYLQMNSLRAEDTAVYYCAREAASSSGYGMGYFDLWGQGTLVTVSSGGGGSGGGGSGGGGSGGGGSIQMTQSPSSLSASVGDRVTITCQSSQSVYDNNWLAWYQQKPGKAPKLLIYRASNLASGVPSRFSGSGSGTDFTLTISSLQPEDFATYYCQGTYLSSNWYWAFGTGTKVTVLGGGGGSQVQLQESGPGLVKPSETLSLTCKVSGFSFSSGYDMCWIRQPPGKGLEWIGCVVAGSVDITYYASWAKGRVTISVDSSKNQFSLKLSSVTAADTAVYYCARKDAYSDAFNLWGQGTLVTVSS | binding result [4]: no binding (tested: 0.12-90 nM); EC50 NFkB-luciferase, CHO-PDL1 cells [12]: 33.7 ng/mL |
